Laboratory results as given in the supplement of paper PMC9170038.

Experiments:
[1] = system: MS2 coat protein; test: apparent KD of MS2 coat protein; designed switch direction (-1 OFF switch, 1 ON switch): 1; higher = weaker reporter binding
Summary of the method: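 The apparent KD reported per design is the median over clusters of curve fits to normalised cluster fluorescence. The RNA switches were transcribed on Illumina chips by stalled E. coli RNA polymerase. SNAP-549-labelled MS2 coat protein was titrated from 0.7 or 1.5 nM, doubling up to 3 µM, in Tris-HCl pH 7.5 buffer containing KCl, MgCl2, BSA, DTT, tRNA and Tween-20, with no input, 200 uM small-molecule ligand, or an oligonucleotide input.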

[2] = system: MS2 coat protein; test: apparent KD of MS2 coat protein; higher = weaker reporter binding; details: Eterna round: R107
Summary of the method: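 Apparent KD per design is the median of normalised cluster binding-curve fits. Designed RNA switches transcribed on-chip from Illumina sequencing clusters were titrated with SNAP-549-labelled MS2 coat protein in twofold steps from 0.7 or 1.5 nM to 3 µM, with 0.8–1.5 h down to 10–20 min per step. Buffer: 100 mM Tris-HCl pH 7.5, 80 mM KCl, 4 mM MgCl2, without or with constant ligand.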

[3] = Eterna round: R95, input ligand: FMN 200 uM
[4] = Eterna round: R95, input ligand: microRNA oligo, concentration not stated
[5] = Eterna round: R95, input ligand: none
[6] = input ligand: microRNA oligo, concentration not stated
[7] = input ligand: theophylline 20 uM
[8] = input ligand: tryptophan 2.4 mM
[9] = input ligand: theophylline 2 mM

Sequence	apparent KD of MS2 coat protein ([2]; input ligand: arginine 13.2 mM) [nM]	apparent KD of MS2 coat protein [2, 7] [nM]	apparent KD of MS2 coat protein [2, 8] [nM]	apparent KD of MS2 coat protein ([2]; input ligand: none) [nM]	apparent KD of MS2 coat protein [2, 9] [nM]	also measured
GGUCCAGCCUGAGCUGGACGAAAGUAUGUACAUGAGGAUCACCCAUGUCAUGUAUAAGUUUUUUGUUUGUCUUGAAA [Sensorship 2 - Jieux - Sensor for hsa-mir-208a] (puzzle: Sensor for hsa-mir-208a)						apparent KD of MS2 coat protein [1, 3]: 22.4 nM; apparent KD of MS2 coat protein [1, 4]: 11.2 nM; apparent KD of MS2 coat protein [1, 5]: 22.7 nM
GCACUCCUAGGAGCUGCGACAUGAGGAUCACCCAUGUAAUCACAGGAUAUGCGAGUCCGAAUUUUGCAGAAGGGUGAUAAGAAC [Biesanarre] (Eterna round: R96, puzzle: Same State NG 3)						apparent KD of MS2 coat protein ([1]; input ligand: FMN 200 uM): 404 nM; apparent KD of MS2 coat protein [1, 6]: 52.3 nM; apparent KD of MS2 coat protein ([1]; input ligand: none): 45.7 nM
AACACACAUGAGGAUCACCCAUGUACCGAAAUCACAGGAUAUACAUAACUGAAUAACAUUGUAGAAGGGUGGCCGG [Enorerteso] (puzzle: Same State 1)						apparent KD of MS2 coat protein [1, 3]: 23.7 nM; apparent KD of MS2 coat protein [1, 4]: 65.7 nM; apparent KD of MS2 coat protein [1, 5]: 91.4 nM
AAGUUACUAUCUCAGGAUAUCAUGUCAAAGACAUGAGGAUCACCCAUGUACCAGGAAACUGGUUAUGAGAAGGGAGAUAGUAACU [Mat - Same State 2 - Mod - D54] (puzzle: Same State 2)						apparent KD of MS2 coat protein [1, 3]: 156 nM; apparent KD of MS2 coat protein [1, 4]: 204 nM; apparent KD of MS2 coat protein [1, 5]: 819 nM
GCGAAAGCGGUAGGAUAUCUAGGAUAUGGGAAAGACUAAGUCUGUAGGUCACCUAACCCAGAAGGAGAGAAGGACAGGGAAACC [pwkr ssNG2 2FMN + F9.34] (Eterna round: R96, puzzle: Same State NG 2)						apparent KD of MS2 coat protein ([1]; input ligand: FMN 200 uM): 38.8 nM; apparent KD of MS2 coat protein [1, 6]: 28.9 nM; apparent KD of MS2 coat protein ([1]; input ligand: none): 22.1 nM
GUUAGGAAUCUAGCAAACAUGAGGAUCACCCAUGUUAGUGGGAAGGAUAUGGUACAGAAACUGUACCAGAAGGUCUUAUUGAUU [Omei SS(NG) 3 AV4] (Eterna round: R96, puzzle: Same State NG 3)						apparent KD of MS2 coat protein ([1]; input ligand: FMN 200 uM): 40.2 nM; apparent KD of MS2 coat protein [1, 6]: 33 nM; apparent KD of MS2 coat protein ([1]; input ligand: none): 59 nM
GUGGUGUAGAUACAGGAUAUGUUGCUCGUAACAUGAGGAUCACCCAUGUAUCUAUGAGAUUAAAUGCAGAAGGGUGCACACCACA [Mat - Same State 2 - Mod of UCT - D72] (puzzle: Same State 2)						apparent KD of MS2 coat protein [1, 3]: 24 nM; apparent KD of MS2 coat protein [1, 4]: 460 nM; apparent KD of MS2 coat protein [1, 5]: 297 nM
AGUGAACAUGAGGAUCACCCAUGUGAGAGAAGUGUAGGAUAUGUGAGGAGCAGAGGAGGAACAGAAGGACAUGGAG [JR_SS!_Sub073] (puzzle: Same State 1)						apparent KD of MS2 coat protein [1, 3]: 29 nM; apparent KD of MS2 coat protein [1, 4]: 36.8 nM; apparent KD of MS2 coat protein [1, 5]: 48.5 nM
GGUAUCUCCCGUGAGGAUAUGCGGCGUAGAACAUGAGGAUCACCCAUGUCCUUCGAAUGGGUUACGCAGAAGGCACGACGGUACC [Robot Leg #2] (puzzle: Same State 2)						apparent KD of MS2 coat protein [1, 4]: 24.5 nM
UAAUUAAAGCAAGGAUAUCACGUCGUUUAGACGUGAGAAGGUGCUCCUUACAUGAGGAUCACCCAUGUAUAACAUGAAUAAUUA [SSNG1/10-B3] (Eterna round: R96, puzzle: Same State NG 1)						apparent KD of MS2 coat protein ([1]; input ligand: FMN 200 uM): 170 nM; apparent KD of MS2 coat protein [1, 6]: 517 nM; apparent KD of MS2 coat protein ([1]; input ligand: none): 656 nM
CGCCAGAGAGCAGGAUAUGGGCCACGGCCUAAGGGCUGUGGACUCACAUGAGGAUCACCCAUGUCCCAGAAGGGCUCCUGGCUA [Usarbebi] (Eterna round: R96, puzzle: Same State NG 2)						apparent KD of MS2 coat protein ([1]; input ligand: FMN 200 uM): 18.1 nM; apparent KD of MS2 coat protein [1, 6]: 128 nM; apparent KD of MS2 coat protein ([1]; input ligand: none): 174 nM
GGUGCCAAAUAAGCCUACAUGAGGAUCACCCAUGUAUGUAGGCAGGAUAUCGUAUGCAAAGCAUACGAGAAGGGCCGAGGCACC [Mat - Same State NG 3 - JL Mod - D57] (Eterna round: R96, puzzle: Same State NG 3)						apparent KD of MS2 coat protein ([1]; input ligand: FMN 200 uM): 23.8 nM; apparent KD of MS2 coat protein [1, 6]: 29.3 nM; apparent KD of MS2 coat protein ([1]; input ligand: none): 47.1 nM
AAGGGUGAGUCUCUAAUCCGUUUGACGGAUACCAGCGAGAGAUAUCGCCCUUGGCAGCCGACGACAUGAGGAUCACCCAUGUAAA [Exclusion - Theophylline A]	17	22	14			
GUAAUUUUAAGAAGGAGCGUCGAAAAUGGGUAAACAUGAGGAUCACCCAUGUAAAGGGAACGACAGGUAGGUCGCUUAGGAUUAC [AstromonsSSArgB#23]	113	235	198	191	220	
GUACAUGAGGAUCACCCAUGUAUAGUUGAAGGAGCGACCGGAGGGUCAGGUAGGUCGCAGCACAUGGCGUAAACCCGUGUAUGCC [#1 Exclusion - Arginine A Attempt #24 (Inspired by Pi)]	18.5	32.7	23	21.7	31.9	
GCACAACAUGAGGAUCACCCAUGUCGAGAUACCAGAACAUAUAUAUUCCCUUGGCAGCUCACACCUUUAAUGUAAAAUUCUUUGG [theeternabot_sameState_MS2_Theo_A_47]	12	15.9	13.9			
AUACAUGAGGAUCACCCAUGUCAUUCAGAAGGAGCGUCAUUUUAGACAGGUAGGUCGCUGAUAGUAUUUUUAUACUUUAUGUUUA [JR_SSArginiA_Sub015]	19.5	29.3	21.6	20.3	23.3	
UUUGAUUAGAGAAGGAGCGUGAUAUUUAUAUAGUGUGUAUGUACAUGAGGAUCACCCAUGUCACAGGUAGGUCGCUCUGAUAAGG [JR_Nu_ExcArginiB_Sub030]	14.8	21.6	16.1	13.2	13.2	
CAGGUGGACUGAAGGAGCGAGUCAGGGACUUACAUGAGGAUCACCCAUGUCACGGUCGUCACUCAGGUAGGUCGCAGUUCGCCUC [Diinan]	113	279	231	188	628	
ACCGCAUCCGUAUAGGAUGCGGCCCAUGAAGGAGCGUGGGAAACCACAGGUAGGUCGCAUGGAAAACAUGAGGAUCACCCAUGUG [Alien]	114	442	489	524	920	
AAAUGAAGGCGAAGGAGCGCGAACAUGAGGAUCACCCAUGUGUAUGUAUGUAGUCAUGUAUCGCAGGUAGGUCGCGCUGUUACAU [Exclusion Arginine B]	106	276	271	278	352	
ACGAACGAUAGUGAUACCAGACGUACAUGAGGAUCACCCAUGUUAUACACAUGGUUUAUUGUCCCUUGGCAGCACGAUAAGUUCG [JR_ExcTheophyB_Sub004]	109	263	282			
UGAUGGUUCGGAAGGAGCGUGUAAGAACAAGAACAUGAGGAUCACCCAUGUAUUAAUUUAACACAGGUAGGUCGCCGGGUUAUUG [11.J]	20.9	23.1	14.4	16.3	22.2	
AUGACUUACGGGCGCCAUUUGUAAUAGGAAGGAGCGGCGAGAUAGCCAGGUAGGUCGCCUAUACAUGAGGAUCACCCAUGUCACC [Vegeorbe]	66.8	103	112	120	81.8	
ACACAUGAGGAUCACCCAUGUUGAGGAACACGAGGACCGGUACGGCCGCCACUCGACACAUGAGGAUCACCCAUGUGAUCACCCA [Same State Tryptophan A 2]	49.7	129			173	
GAUUUAACAAAAGUUGGAUCAGUGGGUGAACGAGGACCGGUACGGCCGCCACUCGGACAUGAGGAUCACCCAUGUCCAUGUGAAA [AstrosExyTryA#19]	47.2	167	77.1	129	121	
GCUGUGAAGUCGGCCGCCACUGGUUAGUUUAACCUCAUGUAACAUGAGGAUCACCCAUGUAAUGUCAGGACCGGGACAACAGCAA [JR_ExcTryptoB_Sub016]	131	236	357	145	289	
